The source of these data is US20170192014A1 (PDL BIOPHARMA, published 2017).

Ends that are not written are not given here. * marks the point of attachment. Biotin = O=C1N[C@H]2[C@H](CS[C@H]2CCCCC(=O)*)N1

Assay [1] deals with T1, biotin conjugated CK18 peptide ^239APKSQDLAKI (A239-I248) (human, also: biotin conjugated).
T1 peptide: APKSQDLAKI
Nature of the assay: ECL assay, hybridoma supernatant on biotin peptide on streptavidin beads. An excerpt:
(§1) Caspases 3 and 6 generated three CK18 protein fragments having the sequences M1-D238 (SEQ ID NO:4), A239-D397 and 5398-H430. A monoclonal antibody specific for the carboxy terminus of human caspase-cleaved cytokeratin CK18 protein fragment having amino acids M1-D238 (SEQ ID NO:4) was generated by immunizing mice with a short peptide sequence of ²²⁹[…] (SEQ ID NO:1) (designated as peptide P1 for the Examples). Mouse sera were screened for a positive response to peptide P1. Splenocytes from mice with a positive response were fused with myeloma cells and cell culture fluid from the resulting hybridomas screened against peptide P1. Supernatant from hybridoma cells producing antibody with a positive response to peptide P1 were further screened by an electrochemiluminescence (ECL) assay against biotin conjugated peptides ²³⁹[…] (SEQ ID NO:10), ²⁴⁰[…] (SEQ ID NO:11), ²²⁹[…] (SEQ ID NO:1) and ²²⁹[…] (SEQ ID NO:12), which were each bound to streptavidin coated paramagnetic beads. Peptides ²²⁹[…] (SEQ ID NO:1) and ²²⁹[…] (SEQ ID NO:12) represent the amino acid sequences A229-D238 and A229-V237 of cytokeratin 18 protein while peptides ²³⁹[…] (SEQ ID NO:10) and ²⁴⁰[…] (SEQ ID NO:11) represent the amino acid sequences A239-1248 and K240-1248 of cytokeratin 18.

Assay [2] addresses T2, biotin conjugated CK18 peptide ^240PKSQDLAKI (human, also: biotin conjugated).
T2 peptide: PKSQDLAKI
Described as above.
Source text: as §1

In assay [3] the target is T3, biotin conjugated CK18 peptide ^229ASSGLTVEVD (A229-D238) (human).
T3 construct: also called peptide P1
T3 peptide: Biotin-ASSGLTVEVD
Nature of the assay: immunoassay on biotin peptides on NeutrAvidin-coated 96-well plate. How it is done:
(§2) The specificity of monoclonal antibody 3C2 was also assessed in an immunoassay against the peptides ²²⁹[…] (SEQ ID NO:1), ²²⁹[…] (SEQ ID NO:12) and ³⁸⁸[…] (SEQ ID NO:13) (each conjugated with biotin at their amino-terminus), which were added to a 96-well microplate coated with NeutrAvidin® by Invitrogen™. Human cytokeratin 18 protein fragment A239-D397 was also produced by the action of caspase 3 during cellular apoptosis and ends in the sequence ³⁹⁴DALD (SEQ ID NO:9). These peptides were incubated with mAb 3C2, M30 antibody (Enzo Life Sciences®, ALX-804-590) or other unrelated mAbs.

For assay [4], the target named is T4, biotin conjugated CK18 peptide ^229ASSGLTVEV (A229-V237) (human).
T4 peptide: Biotin-ASSGLTVEV
Described as above. The procedure:
as §2

Assay [5] deals with T5, biotin conjugated CK18 peptide ^388EDFNLGDALD (human).
T5 peptide: Biotin-EDFNLGDALD
The assay is described as above. How it is done: as §2

In assay [6] the target is T6, recombinant human CK18 protein fragment B (rCK18fB) (human, UniProt P05783 1-238).
T6 construct: also called recombinant CK-18 fragment B protein
T6 sequence: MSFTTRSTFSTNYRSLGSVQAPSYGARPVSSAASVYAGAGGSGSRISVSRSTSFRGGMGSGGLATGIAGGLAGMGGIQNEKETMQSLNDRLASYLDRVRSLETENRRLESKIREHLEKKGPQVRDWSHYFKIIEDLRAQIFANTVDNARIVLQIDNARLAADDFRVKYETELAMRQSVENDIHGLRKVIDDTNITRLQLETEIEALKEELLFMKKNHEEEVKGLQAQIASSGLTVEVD
Nature of the assay: sandwich ECL assay, capture biotin-3C2 on streptavidin beads, detector TAG-C-04, in normal human serum. The procedure: A recombinant human CK18 protein fragment B (rCK18fB) was prepared using standard procedures. An immunoassay consisted of incubating 50 μL rCK18fB (0, 206, 617, 1852, 5557, 16667, 50,000 and 100,000 U/L) spiked into normal human serum with 50 μL of reaction mix consisting of biotinylated mAb 3C2/streptavidin coated paramagnetic beads and anti-CK18 TAG labeled antibody C-04 for 60 minutes at room temperature with shaking. The bead complex was washed twice, suspended in buffer and read on an ECL analyzer. The results shown in FIG. 6, a representative standard curve, indicate rCK18fB is detectable over a range of 0-100,000 U/L (1 U/L=1000 pg=0.037 pM).

Assay [7] concerns the target T7, full length CK18 from a cell extract of SK-BR-3 cells (human, UniProt P05783 1-430).
T7 construct: Endogenous CK18 of the human breast cancer cell line SK-BR-3, seen on a Western blot; also called SK-BR3 cell supernatant (lane 5)
T7 sequence: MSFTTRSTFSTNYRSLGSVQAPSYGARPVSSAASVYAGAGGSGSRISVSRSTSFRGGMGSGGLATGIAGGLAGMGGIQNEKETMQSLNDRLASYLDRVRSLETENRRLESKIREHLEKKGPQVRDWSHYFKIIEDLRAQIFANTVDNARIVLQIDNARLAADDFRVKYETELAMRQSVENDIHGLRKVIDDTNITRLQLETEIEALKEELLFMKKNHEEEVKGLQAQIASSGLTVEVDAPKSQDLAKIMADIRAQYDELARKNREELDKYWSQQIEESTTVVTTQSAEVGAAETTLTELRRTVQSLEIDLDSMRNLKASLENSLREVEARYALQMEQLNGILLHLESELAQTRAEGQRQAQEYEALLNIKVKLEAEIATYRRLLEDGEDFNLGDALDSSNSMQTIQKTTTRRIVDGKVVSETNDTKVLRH
Nature of the assay: Western blot. How it is done:
(§3) FIG. 4 is a photographic reproduction of a Western Blot Analysis using the mAb 3C2 (Lane 1, marker proteins; Lane 2, blank; Lane 3, 1 μg recombinant full length CK18 protein (rCK18); Lane 4, 12 μL of SK-BR3 apoptotic cell supernatant; Lane 5, 12 μL of SK-BR3 cell supernatant). Proteins were run in a 14% Tris/Glycine gel. The concentrations for the test material were 1 μg of rCK18 and 12 μL of SK-BR-3 apoptotic supernatant and SK-BR-3 Cell Lysate. The proteins were run at 150 V constant until the dye front reached the end of the gel. The proteins were then transferred to nitrocellulose. The nitrocellulose was blocked and probed with the 3C2 mAb at 1 μg/mL for 60 minutes. The membrane was washed three times and probed with a goat anti-mouse IgG ALK for 30 minutes. The membrane was washed three times and developed with using a WesternBreeze® kit from Invitrogen™ (Cat # WB7104).
For orientation: In western blotting, separated proteins are transferred to a membrane and probed.

In assay [8] the target is T8, human CK18 protein fragment M1-D238 from apoptotic SK-BR3 cells (human, UniProt P05783 1-238).
T8 construct: Endogenous fragment in the supernatant or lysate of SK-BR-3 cells induced to become apoptotic; also called fragment B; caspase-cleaved CK18 fragment
T8 sequence: T6 sequence
Nature of the assay: Western blot. The procedure:
as §3

Assay [9] concerns the target T9, full length recombinant cytokeratin 18 protein (rCK18) (human, UniProt P05783 1-430).
T9 construct: The exact recombinant construct, including any tags, is not described; also called recombinant full length CK18 protein; full-length (untreated) CK18
T9 sequence: T7 sequence
The assay can be described thus: Western blot. How it is done: as §3

B1: monoclonal antibody 3C2 (antibody, V domains shown)
VH: DVQLVESGGGLVQPGGSRKLSCAASGFTFSSFGMHWVRQAPEKGLEWVAYINGGSTIIYYADTVKGRFTVSRDNPKNTLFLQMTSLRSDDTAMYFCVRRTPTAAGGAMDYWGQGTSVTVSS
VL: NIMVTQSPSSLAVSAGEKVTMTCKSSQSLFYSSNQKNYLAWFQQKPGQSPKLLIYWASTRESGVADRFTGSGYGTDFTLTISSVQAEDLAVYYCQQYLSSWTFGGGTKVEIK
notes: Mouse hybridoma monoclonal antibody, detected with goat anti-mouse IgG; also called mAb 3C2; anti-VEVD mAb
Regarding B1, the binding result in assay [1] is “no binding”; in [2], “no binding”; in assay [3], “binds”; in assay [4] it was “no binding”; in assay [5] it was “no binding”; in assay [6], “binds”. The results for the binding result in assay [7], in assay [8] and in assay [9] were “no binding”, “binds” and “no binding (tested: 3C2 mAb at 1 µg/mL; 1 µg of rCK18)”, respectively.
